Test results taken from the nanobody polyreactivity screen of Harvey et al. (2022).

Assay: yeast display, Sf9 membrane polyspecificity reagent, FACS + sequencing; frameworks hold sequencing errors
Procedure, shortened: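 In a synthetic yeast display library (Saccharomyces cerevisiae BJ5465), nanobody expression was induced with galactose for 36–48 hours. FACS gates were set low and high (top ~1%) using anti-HA fluorescence for expression and streptavidin fluorescence for binding of the Sf9 membrane reagent. Each polyreactivity label is drawn from the gate of origin.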

| Sequence | polyreactivity (PSR sort gate) |
| --- | --- |
| QVQLVESGGGLVQAGGSLRLSCAASGRTFWYYAMGWSRQAPGKERELVATITSGGSTYYADSVKGRFTISRDNAKNTVYLQMNSLKPEDTAVYYCAARKYYSRAYDYWGQGTQVTVSS | high polyreactivity |
| QVQLVESGGGLVQAGGSLRLSCAASGRTFWYYAMGWYRQAPGKEREFVAAISWSGGSTYYADSVKGRFTISRDNAKNTVYLQMNSLKPEDTAVYYCAADGYDSSQFYYWGQGTQVTVSS | low polyreactivity |
| QVQLVESGGGLVQAGGSLRLSCAASGRTFWYYAMGWYRQAPGTERELVAAITYRGTRTYADSVKGRFTISRDNAKNTVYLQMNSQKPEDTPVYYCAKDVGYRYSGTMDYWGQGTQVTVSS | high polyreactivity |
| QVQLVESGGGLVQAGGSLRLSCAASGRTFWYYAMGWYRQSPGKERELVAVITSGSSTYYADSVKGRFTISRDNAKNTVYLQMNSLKPEDTAVYYCNKLGRIQYDYWGQGTQVTVSS | high polyreactivity |
| QVQLVESGGGLVQAGGSLRLSCAASGRTFWYYTMGWYRQAPGKERELVAAISSGGTTNYADSVKGRFTISRDNAKNTVYLQMNSLKPEDTAVYYCAARYRSYAVRLRGYDYWGQGTQVTVSS | high polyreactivity |
| QVQLVESGGGLVQAGGSLRLSCAASGRTFYANAMGWYRHAPGKERELVASITGSGGRTYYADSVKGRFTISRDNAKNTVYLLMNSLKPEDTAVYYCNADPGWVYRDYEPNGLDYWGQGTQVTVSS | low polyreactivity |
| QVQLVESGGGLVQAGGSLRLSCAASGRTFYDNAMGWDRQAPGKARELVAAITQSGGRTYYADSVKGRFTISRDNAKNTGYLQMNSLKPADTAVYYCAASWPNYLYEYWGQGTQVTVSS | high polyreactivity |
| QVQLVESGGGLVQAGGSLRLSCAASGRTFYDNAMGWYRQAPGNERELVAAITVRGGSTRYADSVKGRFTISRDNAKNTVYLQLNSLKPEDTAVYYCAATQTPYRYHYDYWGQGTQVTVSS | high polyreactivity |
| QVQLVESGGGLVQAGGSLRLSCAASGRTFYDYAMGWYRQAHGKERELVAAIRLSGASTYYADSVKGRFTISRDNAKNTVYLQMNSLKPEDTAVYYCAARYGGRVAYRGYSYYYWGQGTQVTVSS | high polyreactivity |
| QVQLVESGGGLVQAGGSLRLSCAASGRTFYDYAMGWYRQAPGKEREFVARITYSGGGTYYADSVKGRFTISRDNAKHTVYLQMNSLKPEDTAVYYCARPFNRYLGLTRNGYTSDYWGQGTQVTVSS | high polyreactivity |
| QVQLVESGGGLVQAGGSLRLSCAASGRTFYDYAMGWYRQAPGKERELVAASSRRAGSTYYADSVKGRFTISRDNAKNTVFLEMNSLKPEDTSVYYCAAAYYRRWWRGHHYAFDYWGQGSQVTVSS | high polyreactivity |
| QVQLVESGGGLVQAGGSLRLSCAASGRTFYDYAMGWYRQAPGKERELVADITSGGGNTYYADSVKGRFTISRDNAKNTVYLQMNSLKPEDTAVYYCNADYDLYFSGWYDYWGQGTQVTVSS | low polyreactivity |
| QVQLVESGGGLVQAGGSLRLSCAASGRTFYDYAMGWYRQAPGKERELVASINSDGSTYYADSVKGRFTISLDNAKNTVYLQMNSLKPEDTAVYYCAADALLYSVYYRMYGYDYWGQGTQVTVSS | low polyreactivity |
| QVQLVESGGGLVQAGGSLRLSCAASGRTFYDYDMGCDRQAPGKERELVAAISGGDSTYYADSVKGRFTISRDNAKNTVYLQMNSLKPEDTAVYYCAVTPRGLPYGAYLLYYWGQGTQVTVSS | low polyreactivity |
| QVQLVESGGGLVQAGGSLRLSCAASGRTFYFNAMGWYRQAPGKERELVATITRRGGSTSYADSVKGRFTISRDNAKNTVYLQMNSLKPEDTAVYYCGNVSPPKFPERFDYWGQGTQVTVSS | low polyreactivity |
| QVQLVESGGGLVQAGGSLRLSCAASGRTFYFYTMGWYRQAPGKERELVATINWSGTSTYYADSVKGRFTISRDNAKNTVYLQMNSLKPEDTAVYYCAVRGGRYKYGYDYWGQGSQVTVSS | high polyreactivity |
| QVQLVESGGGLVQAGGSLRLSCAASGRTFYGNAMGWYRQAPGKEREFVAGISWRGGRTYYADSVKGRFTISRDNAKNTVYLQMNSLKPEDTAVYYCAASAGYRGRKQYHENGYWGQGTQVTVSS | high polyreactivity |
| QVQLVESGGGLVQAGGSLRLSCAASGRTFYGNGMGWYRQAPGKDRELVAAISWSGGSTYYADSVKGRFTISRDNAKNTVYLQMNSLKPEDTAVYYCAAAYRSFIIGRWYDYWGQGTQVTVSS | low polyreactivity |
| QVQLVESGGGLVQAGGSLRLSCAASGRTFYGNVMGWYRQAPGKERELVAAISSRGSRTYYADSVKGRFTISRDNAKNTVYLQMNSLKPEETAVYYCNTYVRNHGLAGPDDYWGQGTLVTVSS | high polyreactivity |
| QVQLVESGGGLVQAGGSLRLSCAASGRTFYGYAMGWYRPAPGKERELVAAIDRGGSTDYADSVKGRFTISRDNAKNTVYLQLNSLKTEDTAVYYCAKGYDYYGRRYYYWGQGTQVTVSS | high polyreactivity |
| QVQLVESGGGLVQAGGSLRLSCAASGRTFYGYAMGWYRQAPGKERELVASISWSTGSTHYADSVKGRFTISRDNAKNTVYLQMNSLKPEDTAVYYCAAPFWRDSYVQIDYDYWGQGTQVTVSS | low polyreactivity |
| QVQLVESGGGLVQAGGSLRLSCAASGRTFYGYAMGWYRQAPGKERELVASISYSGGNTYYADSVKGRFTISRDIAKNTVYLQMNSLKPEDTAVYYCAAEVVFFGWHYDYWGQGTQVTVSS | high polyreactivity |

| Sequence | polyreactivity (PSR sort gate) |
| --- | --- |
| QVQLVESGGGLVQAGGSLRLSCAASGRTFYGYAMGWYRQAPGKERELVAVITRDGSTNYADSVKGRFTISRDNAKNTVYLQMNSLKPEDTAVYYCAAERLAYRVRWRYNQEDYWGQGTQVTVSS | high polyreactivity |
| QVQLVESGGGLVQAGGSLRLSCAASGRTFYHNAMGWYRQAPGKERELVASNRWSGGSTYADSVNGRFTISRDNAKNTVYLQMNSLKPEDTAVYYCARRYYRTGYWEPFIALNGYWGQGTKVTVSS | high polyreactivity |
| QVQLVESGGGLVQAGGSLRLSCAASGRTFYHYAMGWYRQAPGKEREFVAAISVSGGRTYYADSVKGRFTISRDNAKNTVYLQMNSLKPEDTAVYYCAARSGAQRGGGYWGQGTQVTVSS | high polyreactivity |
| QVQLVESGGGLVQAGGSLRLSCAASGRTFYIYAMGWYRQAPGKERELVAAISGSGGSTYYADSVKGRFTISRDNAKNTVYFQMNSLKPEDTAVYYCATKLRRSRYVRYDYWGQGTQVTVSS | high polyreactivity |
| QVQLVESGGGLVQAGGSLRLSCAASGRTFYIYAMGWYRQAPGKERELVAAITSVGSTNYADSVKGRFTISRDNAKNTVYLQMNSLKPEDTAVYYCAAASTEGTSGDYDYWGQGTQVTVSS | low polyreactivity |
| QVQLVESGGGLVQAGGSLRLSCAASGRTFYIYTMGWYRQAPGKERELVAAISSSGDSTYYADSVKGRFTISRDNAKNTVFLQMNPLKPEDTAVYYCAAYPTYPDEYWGQGTQVTVSS | low polyreactivity |
| QVQLVESGGGLVQAGGSLRLSCAASGRTFYKNTMGWYREAPGKEREMVATISQRGGSTYYADSVKGRFTISRDNAKNTVFLQMNSLKPEDTAVYYCYARHYYIWWRSPTRTAMNYWGQGTQVTVSS | high polyreactivity |
| QVQLVESGGGLVQAGGSLRLSCAASGRTFYKNTMGWYRQAPGKERELVAGISQRGGRTYYADSVKGRFTISRDNANYTVYLQMNSLKPEDTAVYYCAVRSYGHGFDYWGQGNQVTVSS | high polyreactivity |
| QVQLVESGGGLVQAGGSLRLSCAASGRTFYKYTMGWYRQAPGKERELVAAITTSGGGTYYADSVKGRFTISRDNAKNTVYIQMNSLKPEDTAVYYCAARYRELRTEYYYWGQGTQVTVSA | high polyreactivity |
| QVQLVESGGGLVQAGGSLRLSCAASGRTFYLNAMGWYRQAPGKERELVAAISRNGGSTYYADSVKGRFTISRDNAKNTVYLQMNSLKPEDTAVYYCNKNWLGWADPSLDKRYDYWGQGTQVTVSS | high polyreactivity |
| QVQLVESGGGLVQAGGSLRLSCAASGRTFYLNAMGWYRQAPGKERELVAAITSSGGRTYYADSVKGRFTISRDNAKNTVYLQMNSLKPEDTAVYYCAAVVSSKPSFYWGQGTQVTVSS | low polyreactivity |
| QVQLVESGGGLVQAGGSLRLSCAASGRTFYLYAMGWYRQAPGKEREFVAAISKRGGSTYYADSVKGRFTISRDNAKNTVYLQMNSLKPEDTAVYYCAAEVFRYRLNQTPTYRGDYWGQGTQVTVSS | high polyreactivity |
| QVQLVESGGGLVQAGGSLRLSCAASGRTFYLYAMGWYRQAPGKERELVAAITSAGSTNYADSVKGRFTISRDNAKNTVYLQMNSLKPEDSAVYYCNAYKRGYLYRYNYWGQGTQVTLSS | high polyreactivity |
| QVQLVESGGGLVQAGGSLRLSCAASGRTFYLYAMGWYRQAPGKERELVAAITSGGSTYYADSVKGRFTISRDNAKNTVYLQMNSLKPEDTAVYYCAAYAYLTAGTSRRRGYWGQGTQVTVSS | high polyreactivity |
| QVQLVESGGGLVQAGGSLRLSCAASGRTFYLYAMVCYRQAPGKERELVAAITNRGGSTYYADSVKGRFTISRDNAKNTVYLQMNSLKPEDTAVYYCAAQVSVYRGGYGYWGQGTQVTVSS | high polyreactivity |
| QVQLVESGGGLVQAGGSLRLSCAASGRTFYLYTMGWYRQAPGKERELVAAISRGGRTYADSVKGRFTISRDNAKNTVYLQMNSLKPDDTAVYYCAAESVYHGWSYQHGKGDYWGQGTQVTVSS | low polyreactivity |
| QVQLVESGGGLVQAGGSLRLSCAASGRTFYLYTMGWYRQAPGKERELVAAISRGGRTYADSVKGRFTISRDNAKNTVYLQMNSLKPEDTAVYYCAAESVYQGWSYQHGKGDYWGQGTQVTVSS | low polyreactivity |
| QVQLVESGGGLVQAGGSLRLSCAASGRTFYNYAMGWYRQAPGKERELVAAISWSDGTTYYADSVKGRFTISRDNAKNTVYLQMNSLKPEDTAVYYCAAEFESSFALGFYYWGQGTQVTVSS | high polyreactivity |
| QVQLVESGGGLVQAGGSLRLSCAASGRTFYNYAMGWYRQAPGKERELVAAITRGGSTYYADSVKGRFTISRDNAKNTVYLQMNSLKPEDTAVYYCNAYYYIPFEGRGYSKMDYWGQGTQVTVSS | high polyreactivity |
| QVQLVESGGGLVQAGGSLRLSCAASGRTFYNYAMGWYRQAPGKERELVASIRKNGGSTYYADSVKGRFTISRDNAKNTVYLQMNSLKPEDTAVYYCDARYWGISRIFPSKYDYWGQGTQVTVSS | high polyreactivity |
| QVQLVESGGGLVQAGGSLRLSCAASGRTFYPNAMGWYRQAPGKERELVAAITWRSGSTYYADSVKGRFTISRDNAKNTVYLPMNSLKPEDTAVYYCNADSDYPYYPGKFDYWGQGTQVTVSS | low polyreactivity |
